The record followed here is ChEMBL document CHEMBL1250451, “Mechanistic insights into a Ca2+-dependent family of alpha-mannosidases in a human gut symbiont” (Nat Chem Biol, 2010).

Holding throughout (type): protein assay
Substrate in data set [1]: O=[N+]([O-])c1ccc(O[C@H]2O[C@H](CO)[C@@H](O)[C@H](O)[C@@H]2O)cc1
The experiment in a line: Activity of Bacteroides thetaiotaomicron GH92 alpha-mannosidase GH92 alpha-mannosidase 1878 assessed as mannose release after 16 hrs by HPLC.

Substrate in data set [2]: O=[N+]([O-])c1ccc(O[C@H]2O[C@H](CO)[C@@H](O)[C@H](O)[C@@H]2O)cc1
In words: Ratio of Kcat to Km for Bacteroides thetaiotaomicron GH92 alpha-mannosidase GH92 alpha-mannosidase 1878 assessed as mannose release after 16 hrs by HPLC.

Substrate in data set [3]: O=[N+]([O-])c1ccc(O[C@H]2O[C@H](CO)[C@@H](O)[C@H](O)[C@@H]2O)cc1
In words: Ratio of Kcat to Km for Bacteroides thetaiotaomicron GH92 alpha-mannosidase GH92 alpha-mannosidase 2948 assessed as mannose release after 16 hrs by HPLC.

Substrate in data set [4]: O=[N+]([O-])c1ccc(O[C@H]2O[C@H](CO)[C@@H](O)[C@H](O)[C@@H]2O)cc1
The experiment in a line: Activity of Bacteroides thetaiotaomicron GH92 alpha-mannosidase 1032 assessed as mannose release after 16 hrs by HPLC.

Substrate in data set [5]: O=[N+]([O-])c1ccc(O[C@H]2O[C@H](CO)[C@@H](O)[C@H](O)[C@@H]2O)cc1
The experiment in a line: Ratio of Kcat to Km for Bacteroides thetaiotaomicron GH92 alpha-mannosidase 1032 assessed as mannose release after 16 hrs by HPLC.

Substrate in data set [6]: O=[N+]([O-])c1ccc(O[C@H]2O[C@H](CO)[C@@H](O)[C@H](O)[C@@H]2O)cc1
In words: Ratio of Kcat to Km for Bacteroides thetaiotaomicron GH92 alpha-mannosidase GH92 alpha-mannosidase 3130 assessed as mannose release after 16 hrs by HPLC.

Substrate in data set [7]: O=[N+]([O-])c1ccc(O[C@H]2O[C@H](CO)[C@@H](O)[C@H](O)[C@@H]2O)cc1
The experiment in a line: Activity of Bacteroides thetaiotaomicron GH92 alpha-mannosidase GH92 alpha-mannosidase 3130 assessed as mannose release after 16 hrs by HPLC.

Substrate in data set [8]: O=[N+]([O-])c1ccc(O[C@H]2O[C@H](CO)[C@@H](O)[C@H](O)[C@@H]2O)cc1
The experiment in a line: Activity of Bacteroides thetaiotaomicron GH92 alpha-mannosidase GH92 alpha-mannosidase 3858 assessed as mannose release after 16 hrs by HPLC.

Substrate in data set [9]: O=[N+]([O-])c1ccc(O[C@H]2O[C@H](CO)[C@@H](O)[C@H](O)[C@@H]2O)cc1
The experiment in a line: Ratio of Kcat to Km for Bacteroides thetaiotaomicron GH92 alpha-mannosidase GH92 alpha-mannosidase 3858 assessed as mannose release after 16 hrs by HPLC.

B1: Alpha-1,2-mannosidase (BT_1878) (Bacteroides thetaiotaomicron), Q8A6K3 (protein)
chain: MIIMKRKSPVMAVALAGLFMYTSCSPTEQAETKDYTQYVNTFIGAADNGHTFPGACYPFGMIQTSPVTGAVGWRYCSEYTYQDSLIWGFTQTHLNGTGCMDLGDILVMPVTGTRARAWDAYRSHFPKDKEAATPGYYTVELSDPQVKAELTASIHAALHRYTYHKADSASLLIDLQHGPAWREEQYHSQVNSCEVNWEDAQTLAGHVNNTVWVDQDYFFVMKFNRPVIDSLYLPMGETEKGKRIIATFDLKPGDELMMKVALSTTSVEGAKKNLQAEIPDWNFDGVKLAAHDEWNSYLSRMDVEGTDDEKTNFYTCFYHALIQPNQISDVDGMYRNAADSIVKAGTGTFYSTFSLWDTYRAAHPFYTLMVPERVDDFVNSLIEQGEVQGFLPIWALWGKENFCMIGNHGVSVIAEAYRKGFRGFDAERAFNMVKKTQTVSHPLKSDWEVYTKYGYFPTDLTKAESVSSTLESVYDDYAAADMARRMGKEEDAAYFAKRADYYKNLFDSQTNFMRPRKADGTWKSPFNPSDVGHAESTGGDYTEGNAWQYTWHVQHDVPGLIALFGGEEPFLNKLDSLFTVKLETTQADVTGLIGQYAHGNEPSHHVTYLYALAGRPERTQELIREIFDTQYKNKPDGLCGNDDCGQMSAWYMFSAMGFYPVDPVSGDYVFGAPQLPKIVLHLADGKTFTVIAENLSKEHKYVDSITLNGEPYTKNTISHEDILKGGTLVYKMK
For the protein B1, in data set [1], the Michaelis constant (Km) is 900 µM and the kcat is 0.00133 s⁻¹. The kcat/Km in data set [2] was 1.48 M⁻¹ s⁻¹.

B2: Alpha-1,2-mannosidase (BT_2948) (Bacteroides thetaiotaomicron), Q8A3K6 (protein)
chain: MKMKLLILAVLPFLTPINMNSQEEKASWVQYVNPLIGTEVWQSGVAVAGHEDPSGYTFPGVTEPFGMTEWTAHTLESKHAGTLHHRVPYWYKHNYISGFMGTHYPSGAVMFDYGAVELMPVVGQLKCRPEERSSSFTHITEKSKPHFYEVMLDDYQVKAQLSATKTSAILQFTYPQSDSAYVVVDAMPSMFTAGAPGYIHIDPVRKEISGKSIQSARGYRETGYFVVRFDKDFDSFGTFNLNNDYPEVIEEKYLFTQKEGKWVNGLKGIYTQDSKGVGHLRSEKIDPVIDFDWDWYKPADDFSFNDYQVTWSGKLKAPSTGEYTLGIQADDGARLYINGELLIDDWKSHSFSYQPTQKKISLEAGKMYDIKLEYYQHEWSSRIKLSWIRPDKKSSTSLLTGNRHLESSTKIGGYIRFKTGKNEVIKAIVGTSFISVEQARINLEREIGAKSMETISAQTEALWNKELSVIDLPGATEQDKIVFYTALYHSFLLPRSLSEDGKYRSPFDGKVHKGISFTDYSIWDTFRATHPLFVLLKPDFAGDLITGLLHAYDEGGWLPKWPNPGYTNCMMGTHSDAIIADAYVKGVRNFDVEKAKKAVLKNAYEKGNHIAWGRLGIMDYERLGYVPVDKYGESVARTMEFAYDDYCLSRFFAEKGEPDLSDKLGKRSKNFRNVLDKETKMVRARKADGSWSNPEDYDISVWSGFNPKGVYNYKKNYTLFVPHDVPELIRFLGGTDSLAVFMDELFDKDIYYVGDEFVMHAPYMYNLCKRPWMTQKRIYDIVNKYYLPTPSGLPGNDDCGQLSSWYIFSAMGFYPMCPASIEYQLGVPCLPGFVLHLPQNRTFTIKTKNFGKGNCYVRAVYLNGKPHRSSVITHSDIINGGEILFELTDKPAYNWFQ
In the case of B2, in [3], the kcat/Km turned out to be 42.7 M⁻¹ s⁻¹.

B3: Alpha-1,2-mannosidase family protein (BT_1032) (Bacteroides thetaiotaomicron), Q8A8Y5 (protein)
chain: MRRILLTCTLAFTLLPVFGGEGKAPPMDKEKSLLIDYVDPFIGTTNFGTTNPGAVCPNGMMSVVPFNVMGSADNTYDKDARWWSTPYEHTNCFFTGYSHVNLSGVGCPELGSLLLMPTTGELNVDYKEYGSKYKDEQASPGYYSNYLTKYNIKTEVSATPRTGIARFTFPKGESHILLNLGEGLTNESGAMLRRVSDSEIEGMKLLGTFCYNPQAVFPIYFVMRVNKVPATTGYWKKQRPMTGVEAEWDRDQGKYKLYTRYGKEIAGDDVGAYFTFETEEGEQVEVQMGVSFVSIENARLNLDKEQSGKNFEQVLSDARAQWNDDLSRITVEGGTDAQKTVFYTALYHLLIHPNVLQDVNGEYPAMESDQILTTKGTRYTVFSLWDTYRNVHQLLTLVYPERQMEMVRTMLDMYREHGWFPKWELYGRETLTMEGDPSIPVIVDTWMKGLRDFDVDLAYEAMYKSATLPGAENLMRPDNDDYMSKGYVPLREQYDNSVSHALEYYIADFALSRFADALGKKKDAEMFYKRSLGYKHYYSKEFGTFRPILPDGTFYSPFNPRQGENFEPNPGFHEGNSWNYTFYVPHDVYGLAKLMGGKKPFVNKLQMVFDEGLYDPANEPDIAYAHLFSYFKGEEWRTQKETQRLLDKYFTTKPDGIPGNDDTGTMSAWAIFNMIGFYPDCPGLPEYALTTPVFNKVTIRLDPKWYKENELVIESNRTGSETLYINKVLLDGKKFNKYRITHDELVHGKRLIFDLK
For B3, in data set [4], the Km amounted to 1700 µM and the kcat worked out at 0.006 s⁻¹. Also, in [5], the kcat/Km was determined as 3.5 M⁻¹ s⁻¹.

B4: Alpha-1,2-mannosidase, putative (BT_3130) (Bacteroides thetaiotaomicron), Q8A325 (protein)
chain: MKKLLLSVCAFSLTLATLQAGEITKYVNPFIGTGAIDGGLSGNNYPGATSPFGMIQLSPDTSEAPNWGDASGYDYNRNTIFGFSHTRLSGTGASDLIDITLMPTSSGRTSSAFTHDEEKARPGYYQVMLKDENINAELTTTQRNGIHRYQYPAGKDAEIILDMDHSADKGSWGRRIINSQIRILNDHAVEGYRIITGWAKLRKIYFYMEFSSPILTSTLRDGGRVHENTAVINGTNLHGCFRFGQLNGKPLTCKVALSSVSMENARQNMEQEAPHWDFDRYVAAADADWEKQLGKIEVKGTEVQKEIFYTALYHTMIQPNTMSDVNGEYMAADYTTRKVANNETHYTTFSLWDTFRASHPLYTLLEPERVTDFVKSMIRQYEYYGYLPIWQLWGQDNYCMIGNHSIPVITDAILKGIPGIDMEKAYEAVYNSSVTSHPNSPFEVWEKYGFMPENIQTQSVSITLEQAFDDWCVAQLAAKLNKDADYQRFHKRSEYYRNLFHPKTKFFQSKNDKGEWIEPFDPYQYGGNGGHPFTEGNAWQYFWYVPHNIQALMELTGGTKAFEQKLDTFFTSTYKSEQMNHNASGFVGQYAHGNEPSHHVAYLYNFAGQPWKTQKYVSHILNTLYNNTSSGYAGNDDCGQMSAWYVFSAMGFYPVNPADGRYIIGSPLLDECTLKLAGNKEFRIRTIRKSPEDIYIQSVTLNGKKHKDFFITHQDIMNGGTMVFKMGKKPSGWGK
For B4, the kcat/Km in data set [6] came to 112000 M⁻¹ s⁻¹. Besides, in data set [7], the Michaelis-Menten constant (Km) was found to be 510 µM and the kcat amounted to 56.7 s⁻¹.

B5: Alpha-1,2-mannosidase (BT_3858) (Bacteroides thetaiotaomicron), Q8A113 (protein)
chain: MMMNRLNIKRTVGSCLMAMAFFSCTHTDQTPTKDFVDYVNPYIGNISHLLVPTYPTVHLPNSMLRVYPERGDYTSDRVNGLPVVVTSHRGSSAFNLSPVQGEVSRPIVSYSYDLENITPYSYSVYLDEADIQVEYAPSHQAGIYHISFGTEGDNALVVNTKNGKLVAEEKGVSGYQVIDNTPTKIYLYLETSQLPLRKGVLADGKVDMESKEGSAIALYYGSEKNLNLRYGISFISAEQAKKNLQRDITTYDVKAVADAGRRIWNKTLGKIVIEGGSEDEKEIFYTSLYRTYERMINLSEDGKYYSAFDGKIHEDGGVPFYTDDWIWDTYRATHPLRILIEPQKELDMIRSYIRMAEQSDRRWMPTFPEVTGDSHRMNGNHAVAVIWDAYCKGLKDFDLEAAYEACKGAITEKTLLPWLRCPLTELDKFYQEKGFFPALNPGEEETCKAVHSFERRQAVAVMLGNCYDNWCLAQIARTLNKTDDYKKFMRMSYTYRNVYNAETGFFHPKNKDGKFIEPFDYRYSGGQGARGYYGENNGWIYRWDVQHNPADLIALMGGQASFIERLNQTFNEPLGRSKFDFYHQLPDHTGNVGQFSMANEPCLHIPYLYNYAGQPWMTQKRIRVLLNQWFRNDLMGVPGDEDGGGMTAFVVFSMMGFYPVTPGSPTYNIGSPVFQSAKMEVGDGHYFEIIAENYAPDHKYIQSATLNGTPWNKPWFSHADIQNGGRLVLQMGDKPNKKWGIASDAVPPSSESLPE
With B5, in data set [8], the Km is 270 µM and the kcat worked out at 0.000417 s⁻¹. The kcat/Km in data set [9] is 1.57 M⁻¹ s⁻¹.

A word on the Km: it is the concentration of substrate that gives half-maximal velocity. A word on the kcat: it is the number of substrate molecules converted per active site and unit of time at saturation. As a reminder, the kcat/Km is the turnover number divided by the Michaelis constant.
